Results: PMC5799168 (Scientific Reports, 2018)

System: wild-type and mutant Ndi1
Experiment: Kinetic parameters of the oxidoreductase activity of wild-type and mutant Ndi1 for ubiquinone-1
Type: biochemical, Saccharomyces cerevisiae
Details: for Km: apparent Km for ubiquinone-1 (2.4–60 µM); for Km / Vmax: NADH fixed at 100 µM; for increase of Km value for ubiquinone-1 in comparison to wild-type enzyme / Vmax, % of the wild-type activity: relative to wild-type Ndi1; for Vmax: ubiquinone-1 as substrate (2.4–60 µM)
Procedure: This unique structure appears to be related to the competitive nature of the inhibition of Ndi1 oxidoreductase activity by stigmatellin. It is therefore hypothesized that L444, I459, R460, and S461, which interact with stigmatellin at the STG-1a site, are also involved in the binding of the substrate ubiquinone (Fig. 5). This hypothesis was evaluated by examining the effects of mutations of the proximal L444 and I459 on the kinetics of the enzymatic reaction of Ndi1. The effect of the mutation of S484, which specifically interacts with stigmatellin at the STG-1b site, was examined as a control. Furthermore, the effects of mutations of W63, P92, A393, Q394, H397, L447, Y482, M485, and L487, which interact with the aromatic head group of stigmatellin at the STG-1a and STG-1b sites, were also examined. Moreover, to investigate the functional role of the STG-2 site in ubiquinone binding, a mutation was also introduced to R479.
NADH-ubiquinone oxidoreductase activity was measured as described previously. In brief, the reaction was started by adding 100 µM NADH to the enzyme mixture containing 10 ng/mL Ndi1, 50 mM sodium phosphate (pH 6.0) and 1 mM EDTA, which was pre-incubated with various concentrations of ubiquinone-1 for 1 min. The decrease in 340 nm absorbance was measured as an indication of the oxidation of NADH (ε = 6.22 mM^−1 cm^−1) with a Shimadzu UV2000 spectrophotometer (Kyoto, Japan). The enzymatic activity obtained with 100 µM NADH and 60 µM ubiquinone-1 in the absence of any inhibitors (100% activity) catalyzed the oxidation of 1,890 μmol NADH/min/mg Ndi1. The concentrations of inhibitors required to obtain the half-maximal inhibition (IC50) were estimated by non-linear regression dose-response curves. The inhibition mode of each inhibitor for ubiquinone-1 was determined by the intersection point in double-reciprocal plots (Fig. 2B–E). To objectively evaluate the inhibition mode, the data of the inhibition kinetics were fitted to the Eq. (1) of mixed model inhibition in the Prism6 software program (GraphPad Software, Inc., La Jolla, CA).1 V=Vmax[S]/[S](1+[I]/αKi)+Km(1+[I]/Ki) […]
To determine the kinetic parameters of wild-type and mutant enzymes for ubiquinone-1, the NADH oxidation rates were measured in a fixed concentration of NADH (100 µM) and different concentrations of ubiquinone-1 (2.4–60 µM). Apparent Km and Vmax values were obtained by fitting a data set of initial velocity versus substrate concentration to the Michaelis-Menten model equation in the Prism6 software program.
Site-directed mutagenesis. The amino acid replacements of Ndi1 were basically performed with PrimeSTAR mutagenesis basal kit (Takara, Japan) using pET16b(NDI1-m) (2) and a synthetic oligonucleotide primer set (Table S2). The mutagenesis of H397 was performed with a QuikChange II XL site-directed mutagenesis kit (Stratagene, CA). Each mutation was confirmed through DNA sequencing (DNA sequencing service, Eurofins). The purification procedure of wild-type and mutant enzymes, used for the determination of the kinetic parameters (Table 2), was basically the same as the above procedure, without the replacement of the detergent from Triton X -100 with DDM. After washing the enzyme with buffer A containing 0.1% Triton X-100 and 15 mM histidine, 0.02% Triton X-100 was added to all buffer as a substitute for DDM. With the exception of 5 mutants containing L444D, I459A, […]
yield of the wild-type enzyme. […]

| Molecule | Km [µM] | increase of Km value for ubiquinone-1 in comparison to wild-type enzyme [fold] | Vmax [µmol/min/mg] | Vmax, % of the wild-type activity [%] |
| --- | --- | --- | --- | --- |
| L444D: recombinant Ndi1 mutant L444D (protein, UniProt P32340 27-513, looked up, variant L444D) Rotenone-insensitive …: STGVENSGAGPTSFKTMKVIDPQHSDKPNVLILGSGWGAISFLKHIDTKKYNVSIISPRSYFLFTPLLPSAPVGTVDEKSIIEPIVNFALKKKGNVTYYEAEATSINPDRNTVTIKSLSAVSQLYQPENHLGLHQAEPAEIKYDYLISAVGAEPNTFGIPGVTDYGHFLKEIPNSLEIRRTFAANLEKANLLPKGDPERRRLLSIVVVGGGPTGVEAAGELQDYVHQDLRKFLPALAEEVQIHLVEALPIVLNMFEKKLSSYAQSHLENTSIKVHLRTAVAKVEEKQLLAKTKHEDGKITEETIPYGTLIWATGNKARPVITDLFKKIPEQNSSKRGLAVNDFLQVKGSNNIFAIGDNAFAGLPPTAQVAHQEAEYLAKNFDKMAQIPNFQKNLSSRKDKIDLLFEENNFKPFKYNDDGALAYLGSERAIATIRSGKRTFYTGGGLMTFYLWRILYLSMILSARSRLKVFFDWIKLAFFKRDFFKGL | 37.6 ± 3.9 | 1.7 | 447 ± 6.8 | – |
| I459W: recombinant Ndi1 mutant I459W (protein, UniProt P32340 27-513, looked up, variant I459W) Rotenone-insensitive …: STGVENSGAGPTSFKTMKVIDPQHSDKPNVLILGSGWGAISFLKHIDTKKYNVSIISPRSYFLFTPLLPSAPVGTVDEKSIIEPIVNFALKKKGNVTYYEAEATSINPDRNTVTIKSLSAVSQLYQPENHLGLHQAEPAEIKYDYLISAVGAEPNTFGIPGVTDYGHFLKEIPNSLEIRRTFAANLEKANLLPKGDPERRRLLSIVVVGGGPTGVEAAGELQDYVHQDLRKFLPALAEEVQIHLVEALPIVLNMFEKKLSSYAQSHLENTSIKVHLRTAVAKVEEKQLLAKTKHEDGKITEETIPYGTLIWATGNKARPVITDLFKKIPEQNSSKRGLAVNDFLQVKGSNNIFAIGDNAFAGLPPTAQVAHQEAEYLAKNFDKMAQIPNFQKNLSSRKDKIDLLFEENNFKPFKYNDLGALAYLGSERAIATWRSGKRTFYTGGGLMTFYLWRILYLSMILSARSRLKVFFDWIKLAFFKRDFFKGL | 75.6 ± 12 | 3.3 | 58.0 ± 1.5 | – |
| I459A: recombinant Ndi1 mutant I459A (protein, UniProt P32340 27-513, looked up, variant I459A) Rotenone-insensitive …: STGVENSGAGPTSFKTMKVIDPQHSDKPNVLILGSGWGAISFLKHIDTKKYNVSIISPRSYFLFTPLLPSAPVGTVDEKSIIEPIVNFALKKKGNVTYYEAEATSINPDRNTVTIKSLSAVSQLYQPENHLGLHQAEPAEIKYDYLISAVGAEPNTFGIPGVTDYGHFLKEIPNSLEIRRTFAANLEKANLLPKGDPERRRLLSIVVVGGGPTGVEAAGELQDYVHQDLRKFLPALAEEVQIHLVEALPIVLNMFEKKLSSYAQSHLENTSIKVHLRTAVAKVEEKQLLAKTKHEDGKITEETIPYGTLIWATGNKARPVITDLFKKIPEQNSSKRGLAVNDFLQVKGSNNIFAIGDNAFAGLPPTAQVAHQEAEYLAKNFDKMAQIPNFQKNLSSRKDKIDLLFEENNFKPFKYNDLGALAYLGSERAIATARSGKRTFYTGGGLMTFYLWRILYLSMILSARSRLKVFFDWIKLAFFKRDFFKGL | 40.2 ± 4.1 | 1.8 | 2.90 ± 0.0042 | – |
| W63F: recombinant Ndi1 mutant W63F (protein, UniProt P32340 27-513, looked up, variant W63F) Rotenone-insensitive …: STGVENSGAGPTSFKTMKVIDPQHSDKPNVLILGSGFGAISFLKHIDTKKYNVSIISPRSYFLFTPLLPSAPVGTVDEKSIIEPIVNFALKKKGNVTYYEAEATSINPDRNTVTIKSLSAVSQLYQPENHLGLHQAEPAEIKYDYLISAVGAEPNTFGIPGVTDYGHFLKEIPNSLEIRRTFAANLEKANLLPKGDPERRRLLSIVVVGGGPTGVEAAGELQDYVHQDLRKFLPALAEEVQIHLVEALPIVLNMFEKKLSSYAQSHLENTSIKVHLRTAVAKVEEKQLLAKTKHEDGKITEETIPYGTLIWATGNKARPVITDLFKKIPEQNSSKRGLAVNDFLQVKGSNNIFAIGDNAFAGLPPTAQVAHQEAEYLAKNFDKMAQIPNFQKNLSSRKDKIDLLFEENNFKPFKYNDLGALAYLGSERAIATIRSGKRTFYTGGGLMTFYLWRILYLSMILSARSRLKVFFDWIKLAFFKRDFFKGL | 53.1 ± 6.4 | 2.3 | 1450 ± 27 | 137 |
| A393G: recombinant Ndi1 mutant A393G (protein, UniProt P32340 27-513, looked up, variant A393G) Rotenone-insensitive …: STGVENSGAGPTSFKTMKVIDPQHSDKPNVLILGSGWGAISFLKHIDTKKYNVSIISPRSYFLFTPLLPSAPVGTVDEKSIIEPIVNFALKKKGNVTYYEAEATSINPDRNTVTIKSLSAVSQLYQPENHLGLHQAEPAEIKYDYLISAVGAEPNTFGIPGVTDYGHFLKEIPNSLEIRRTFAANLEKANLLPKGDPERRRLLSIVVVGGGPTGVEAAGELQDYVHQDLRKFLPALAEEVQIHLVEALPIVLNMFEKKLSSYAQSHLENTSIKVHLRTAVAKVEEKQLLAKTKHEDGKITEETIPYGTLIWATGNKARPVITDLFKKIPEQNSSKRGLAVNDFLQVKGSNNIFAIGDNAFAGLPPTGQVAHQEAEYLAKNFDKMAQIPNFQKNLSSRKDKIDLLFEENNFKPFKYNDLGALAYLGSERAIATIRSGKRTFYTGGGLMTFYLWRILYLSMILSARSRLKVFFDWIKLAFFKRDFFKGL | 32.5 ± 1.9 | 1.4 | 882 ± 7.6 | 83 |
| Q394G: recombinant Ndi1 mutant Q394G (protein, UniProt P32340 27-513, looked up, variant Q394G) Rotenone-insensitive …: STGVENSGAGPTSFKTMKVIDPQHSDKPNVLILGSGWGAISFLKHIDTKKYNVSIISPRSYFLFTPLLPSAPVGTVDEKSIIEPIVNFALKKKGNVTYYEAEATSINPDRNTVTIKSLSAVSQLYQPENHLGLHQAEPAEIKYDYLISAVGAEPNTFGIPGVTDYGHFLKEIPNSLEIRRTFAANLEKANLLPKGDPERRRLLSIVVVGGGPTGVEAAGELQDYVHQDLRKFLPALAEEVQIHLVEALPIVLNMFEKKLSSYAQSHLENTSIKVHLRTAVAKVEEKQLLAKTKHEDGKITEETIPYGTLIWATGNKARPVITDLFKKIPEQNSSKRGLAVNDFLQVKGSNNIFAIGDNAFAGLPPTAGVAHQEAEYLAKNFDKMAQIPNFQKNLSSRKDKIDLLFEENNFKPFKYNDLGALAYLGSERAIATIRSGKRTFYTGGGLMTFYLWRILYLSMILSARSRLKVFFDWIKLAFFKRDFFKGL | 30.8 ± 3.4 | 1.4 | 452 ± 8.1 | 43 |
| H397A: recombinant Ndi1 mutant H397A (protein, UniProt P32340 27-513, looked up, variant H397A) Rotenone-insensitive …: STGVENSGAGPTSFKTMKVIDPQHSDKPNVLILGSGWGAISFLKHIDTKKYNVSIISPRSYFLFTPLLPSAPVGTVDEKSIIEPIVNFALKKKGNVTYYEAEATSINPDRNTVTIKSLSAVSQLYQPENHLGLHQAEPAEIKYDYLISAVGAEPNTFGIPGVTDYGHFLKEIPNSLEIRRTFAANLEKANLLPKGDPERRRLLSIVVVGGGPTGVEAAGELQDYVHQDLRKFLPALAEEVQIHLVEALPIVLNMFEKKLSSYAQSHLENTSIKVHLRTAVAKVEEKQLLAKTKHEDGKITEETIPYGTLIWATGNKARPVITDLFKKIPEQNSSKRGLAVNDFLQVKGSNNIFAIGDNAFAGLPPTAQVAAQEAEYLAKNFDKMAQIPNFQKNLSSRKDKIDLLFEENNFKPFKYNDLGALAYLGSERAIATIRSGKRTFYTGGGLMTFYLWRILYLSMILSARSRLKVFFDWIKLAFFKRDFFKGL | 35 ± 2.7 | 1.5 | 463 ± 17 | 44 |
